# Measured values taken from US20220289795, “EFFICIENT METHOD FOR PREPARING PPR PROTEIN AND USE OF THE SAME” (EditForce, Inc., published 2022).
# T1: v3.1_PPR6 (Artificial Sequence)
# T1 chain: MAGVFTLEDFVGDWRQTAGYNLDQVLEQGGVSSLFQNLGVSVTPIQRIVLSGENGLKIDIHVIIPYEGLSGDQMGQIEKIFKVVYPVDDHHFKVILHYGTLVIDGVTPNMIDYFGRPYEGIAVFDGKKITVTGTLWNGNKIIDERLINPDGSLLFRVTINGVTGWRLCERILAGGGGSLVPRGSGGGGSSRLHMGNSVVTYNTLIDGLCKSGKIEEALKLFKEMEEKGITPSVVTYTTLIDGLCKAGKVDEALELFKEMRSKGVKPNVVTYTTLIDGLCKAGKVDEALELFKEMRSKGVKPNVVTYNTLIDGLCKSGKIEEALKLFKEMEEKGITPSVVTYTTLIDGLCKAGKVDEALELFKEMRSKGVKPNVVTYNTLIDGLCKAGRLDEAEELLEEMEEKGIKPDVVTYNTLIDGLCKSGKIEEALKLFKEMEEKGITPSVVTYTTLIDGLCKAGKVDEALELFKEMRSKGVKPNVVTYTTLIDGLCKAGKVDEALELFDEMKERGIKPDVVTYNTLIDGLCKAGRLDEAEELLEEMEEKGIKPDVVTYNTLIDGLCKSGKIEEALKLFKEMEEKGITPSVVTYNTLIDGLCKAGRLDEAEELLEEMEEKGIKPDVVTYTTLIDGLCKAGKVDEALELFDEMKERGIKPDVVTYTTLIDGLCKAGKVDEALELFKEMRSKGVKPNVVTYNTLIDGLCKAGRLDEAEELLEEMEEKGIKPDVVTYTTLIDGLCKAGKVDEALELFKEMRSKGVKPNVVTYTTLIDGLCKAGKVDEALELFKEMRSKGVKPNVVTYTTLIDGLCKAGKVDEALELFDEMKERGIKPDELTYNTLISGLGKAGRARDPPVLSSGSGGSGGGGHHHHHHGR
# T2: NL_v2_PPR7 (Artificial Sequence)
# T2 chain: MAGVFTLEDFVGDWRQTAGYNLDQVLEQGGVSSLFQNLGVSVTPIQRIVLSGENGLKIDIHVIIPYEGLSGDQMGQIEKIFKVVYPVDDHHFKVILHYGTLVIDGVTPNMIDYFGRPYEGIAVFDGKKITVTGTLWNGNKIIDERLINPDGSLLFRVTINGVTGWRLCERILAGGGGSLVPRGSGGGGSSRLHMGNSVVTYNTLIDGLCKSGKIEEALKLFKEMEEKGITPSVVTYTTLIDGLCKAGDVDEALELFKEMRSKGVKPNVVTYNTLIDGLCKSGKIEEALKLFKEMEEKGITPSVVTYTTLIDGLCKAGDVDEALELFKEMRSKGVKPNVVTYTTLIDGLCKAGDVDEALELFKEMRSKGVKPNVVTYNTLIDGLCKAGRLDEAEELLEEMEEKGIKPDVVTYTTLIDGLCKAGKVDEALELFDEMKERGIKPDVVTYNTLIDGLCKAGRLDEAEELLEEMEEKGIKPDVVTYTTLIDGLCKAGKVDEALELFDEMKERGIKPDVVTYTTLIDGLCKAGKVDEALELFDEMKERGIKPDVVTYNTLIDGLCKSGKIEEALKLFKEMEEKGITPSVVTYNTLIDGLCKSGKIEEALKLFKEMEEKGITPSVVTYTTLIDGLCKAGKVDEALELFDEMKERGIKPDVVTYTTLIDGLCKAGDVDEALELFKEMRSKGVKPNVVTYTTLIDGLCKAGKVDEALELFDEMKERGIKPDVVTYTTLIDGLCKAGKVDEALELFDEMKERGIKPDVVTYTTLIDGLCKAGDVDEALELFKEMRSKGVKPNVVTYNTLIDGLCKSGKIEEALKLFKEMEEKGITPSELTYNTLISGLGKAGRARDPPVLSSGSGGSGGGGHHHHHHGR
# T3: v3.1_PPR7 (Artificial Sequence)
# T3 chain: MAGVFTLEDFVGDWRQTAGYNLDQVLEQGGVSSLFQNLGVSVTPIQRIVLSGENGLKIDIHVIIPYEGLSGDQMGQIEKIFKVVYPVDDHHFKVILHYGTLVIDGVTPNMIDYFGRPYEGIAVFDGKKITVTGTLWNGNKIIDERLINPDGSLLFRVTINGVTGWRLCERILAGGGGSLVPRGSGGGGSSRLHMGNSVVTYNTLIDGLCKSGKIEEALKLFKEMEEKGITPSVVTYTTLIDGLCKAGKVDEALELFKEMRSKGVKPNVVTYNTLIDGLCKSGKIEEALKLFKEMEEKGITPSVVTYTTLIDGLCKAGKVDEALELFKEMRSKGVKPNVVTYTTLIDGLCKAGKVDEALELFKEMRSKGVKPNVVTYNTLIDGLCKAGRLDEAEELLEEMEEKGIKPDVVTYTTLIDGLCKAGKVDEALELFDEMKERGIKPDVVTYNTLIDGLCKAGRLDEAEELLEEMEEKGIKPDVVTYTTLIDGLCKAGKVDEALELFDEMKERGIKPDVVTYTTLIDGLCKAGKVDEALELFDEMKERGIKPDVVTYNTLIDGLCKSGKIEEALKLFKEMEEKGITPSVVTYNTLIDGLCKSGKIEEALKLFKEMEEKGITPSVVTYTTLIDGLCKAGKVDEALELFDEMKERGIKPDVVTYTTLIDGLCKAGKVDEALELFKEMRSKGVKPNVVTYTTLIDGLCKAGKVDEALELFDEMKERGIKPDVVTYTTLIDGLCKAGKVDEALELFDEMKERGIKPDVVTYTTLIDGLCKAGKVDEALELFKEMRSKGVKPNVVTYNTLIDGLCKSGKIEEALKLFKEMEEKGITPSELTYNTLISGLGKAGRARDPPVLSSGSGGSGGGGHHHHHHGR
# T4: v3.1_PPR9 (Artificial Sequence)
# T4 chain: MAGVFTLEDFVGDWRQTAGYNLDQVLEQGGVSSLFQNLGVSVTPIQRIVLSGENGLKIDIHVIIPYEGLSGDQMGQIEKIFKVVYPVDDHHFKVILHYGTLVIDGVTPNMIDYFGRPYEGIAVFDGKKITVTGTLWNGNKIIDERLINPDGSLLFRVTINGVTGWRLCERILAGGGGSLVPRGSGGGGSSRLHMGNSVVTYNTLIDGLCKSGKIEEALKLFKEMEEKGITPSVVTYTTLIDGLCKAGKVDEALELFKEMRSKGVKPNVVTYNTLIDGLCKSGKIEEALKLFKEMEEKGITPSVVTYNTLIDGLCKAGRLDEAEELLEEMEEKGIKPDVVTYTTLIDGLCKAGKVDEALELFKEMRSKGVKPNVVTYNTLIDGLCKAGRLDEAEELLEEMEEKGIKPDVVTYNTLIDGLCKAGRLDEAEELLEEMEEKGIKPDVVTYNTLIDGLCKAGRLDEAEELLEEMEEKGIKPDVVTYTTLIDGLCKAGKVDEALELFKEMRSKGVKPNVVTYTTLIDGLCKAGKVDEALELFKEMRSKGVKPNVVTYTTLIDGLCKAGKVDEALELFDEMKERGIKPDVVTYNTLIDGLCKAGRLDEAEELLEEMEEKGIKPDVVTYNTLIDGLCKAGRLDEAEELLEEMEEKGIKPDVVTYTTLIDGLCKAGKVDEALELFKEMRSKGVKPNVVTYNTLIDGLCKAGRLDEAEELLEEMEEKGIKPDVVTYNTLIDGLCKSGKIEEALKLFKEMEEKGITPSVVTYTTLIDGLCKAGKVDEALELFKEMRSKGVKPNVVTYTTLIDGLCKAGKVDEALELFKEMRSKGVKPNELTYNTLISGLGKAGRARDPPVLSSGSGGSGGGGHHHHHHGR
# T5: NL_v2_PPR9 (Artificial Sequence)
# T5 chain: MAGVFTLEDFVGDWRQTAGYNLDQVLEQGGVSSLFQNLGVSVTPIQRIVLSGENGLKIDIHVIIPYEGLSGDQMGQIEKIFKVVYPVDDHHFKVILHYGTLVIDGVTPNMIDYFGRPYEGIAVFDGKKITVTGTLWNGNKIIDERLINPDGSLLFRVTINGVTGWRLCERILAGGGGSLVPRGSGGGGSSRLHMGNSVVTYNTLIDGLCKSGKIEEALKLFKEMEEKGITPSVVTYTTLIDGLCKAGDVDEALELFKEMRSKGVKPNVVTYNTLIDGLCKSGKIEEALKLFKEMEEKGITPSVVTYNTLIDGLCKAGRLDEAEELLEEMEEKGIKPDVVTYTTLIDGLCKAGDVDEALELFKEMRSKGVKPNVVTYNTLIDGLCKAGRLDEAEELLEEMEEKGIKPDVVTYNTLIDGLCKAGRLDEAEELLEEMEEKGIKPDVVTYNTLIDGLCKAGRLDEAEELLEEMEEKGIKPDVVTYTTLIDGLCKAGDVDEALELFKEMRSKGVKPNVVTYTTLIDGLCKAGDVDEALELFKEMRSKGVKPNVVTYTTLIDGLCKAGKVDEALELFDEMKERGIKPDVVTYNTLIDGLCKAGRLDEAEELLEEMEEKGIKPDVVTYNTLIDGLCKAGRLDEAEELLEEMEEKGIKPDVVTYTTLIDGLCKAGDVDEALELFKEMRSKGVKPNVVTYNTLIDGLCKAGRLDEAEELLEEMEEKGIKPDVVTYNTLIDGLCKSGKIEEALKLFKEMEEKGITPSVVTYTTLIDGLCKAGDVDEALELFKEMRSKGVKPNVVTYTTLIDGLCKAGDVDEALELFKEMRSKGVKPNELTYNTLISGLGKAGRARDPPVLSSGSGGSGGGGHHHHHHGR
# Legend:
# [1] = test system: v2_PPR1 (Artificial Sequence); experiment: ELONA
# [2] = test system: v2_PPR5 (Artificial Sequence); experiment: ELONA
# [3] = test system: v2_PPR3 (Artificial Sequence); experiment: ELONA
# [4] = test system: v2_PPR2 (Artificial Sequence); experiment: ELONA
# [5] = target: T1, v3.1_PPR6; experiment: ELONA; RPB-ELISA; conditions: tags: luciferase fusion; label: 5'-biotin
# [6] = target: T2, NL_v2_PPR7; experiment: ELONA; RPB-ELISA; conditions: tags: N-term luciferase, C-term 6xHis; label: 5'-biotin
# [7] = target: T3, v3.1_PPR7; experiment: ELONA; RPB-ELISA; conditions: tags: luciferase fusion; label: 5'-biotin
# [8] = target: T4, v3.1_PPR9; experiment: ELONA; RPB-ELISA; conditions: tags: luciferase fusion; label: 5'-biotin
# [9] = target: T5, NL_v2_PPR9; experiment: ELONA; RPB-ELISA; conditions: tags: N-term luciferase, C-term 6xHis; label: 5'-biotin
molecule,measurement,setting,value
GACAUGCCAACAUCAGUCUGAUAAGGACUG [RNA_6],binding signal (log2 luminescence),"[1]; off-target, on-target 25.98",14.4
GGCAAAAAGAUCACUGUA [T_5 (in RNA_5)],binding signal,[2]; RPB-ELISA,6e+07 luminescence
CUGAGUCAUAACCAGCCU [T_3 (in RNA_3)],binding signal,[3]; RPB-ELISA,3.3e+07 luminescence
GACAUGCCACAAUGUGGCCGAGGACGACUG [RNA_7],binding signal (log2 luminescence),[4]; off-target cross-binding,24.8
GAGAGGAAGCCUGAGAGU [T_2 (in RNA_2)],binding signal,[4]; RPB-ELISA,5.7e+07 luminescence
GAAUGAACUCUUCCGGGA [T_1 (in RNA_1)],binding signal,[1]; RPB-ELISA,6.6e+07 luminescence
same,binding signal (log2 luminescence),[4]; off-target,17
same,binding signal (log2 luminescence),"[3]; off-target, on-target 25.00",16.7
same,binding signal (log2 luminescence),"[2]; off-target, on-target 25.83",18.1
GACAUGCCAACAUCAGUCUGAUAAGGACUG (ssRNA) [RNA_6],binding signal,[5],6.1e+06 luminescence
GACAUGCCACAAUGUGGCCGAGGACGACUG (ssRNA) [RNA_7],binding signal,[6],1.9e+07 luminescence
same,binding signal,[7],3.4e+07 luminescence
GACAUGCCACUAUUUAAGUUAUCAAGACUG (ssRNA) [RNA_9],binding signal,[8],2.2e+06 luminescence
same,binding signal,[9],4.7e+07 luminescence
